Consider one molecule from patent publication US10058586B2, “Use of human small leucine zipper protein in adipocyte differentiation procedure” (Korea University Research and Business Foundation, priority 2013, dated 2018).

The target of the test is T1, HDAC3 (Mus musculus, UniProt O88895).
T1 construct: endogenous in cells; host or cells: C3H10T1/2 cells expressing GFP-sLZIP
T1 sequence (O88895 1-428): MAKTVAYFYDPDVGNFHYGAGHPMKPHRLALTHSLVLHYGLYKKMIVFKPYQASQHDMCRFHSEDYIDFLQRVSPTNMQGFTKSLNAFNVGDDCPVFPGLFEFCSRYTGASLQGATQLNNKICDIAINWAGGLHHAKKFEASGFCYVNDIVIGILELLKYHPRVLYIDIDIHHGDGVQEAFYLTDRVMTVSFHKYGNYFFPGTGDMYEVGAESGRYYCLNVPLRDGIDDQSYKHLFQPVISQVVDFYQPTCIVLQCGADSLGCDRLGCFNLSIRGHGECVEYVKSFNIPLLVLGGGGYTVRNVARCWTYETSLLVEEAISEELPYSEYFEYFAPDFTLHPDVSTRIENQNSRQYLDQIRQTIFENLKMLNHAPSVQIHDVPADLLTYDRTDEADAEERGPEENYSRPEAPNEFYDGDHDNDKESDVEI
Briefly: Fluorescence microscopy, subcellular localization of sLZIP and HDAC3 in C3H10T1/2 cells. The class given is cell-based. To be noted: GFP-sLZIP, anti-HDAC3. As for the experimental part:
C3H10T1/2 cells were transiently ci-transfected with Flag-sLZIP, GFP-PPARγ2 or GFP-sLZIP, and HDAC3 was grown on cover slip. After 24 hours, the cells were fixed with 4% paraformaldehyde for 10 minutes and permeabilized 0.2% Triton-X 100 for 5 minutes. The cells were incubated with 1% BSA for one hour, and then incubated with anti-Flag and anti-HDAC3 antibodies overnight at 4° C. The cells were washed with PBS, and then were incubated with Texas Red-labeled antibodies for 2 hours. A cover slide was washed with PBS, and mounted on and examined using a LSM 510 META confocal microscopy (Carl Zeiss, Jena, Germany).
For this purpose, 293T cells were transiently transfected with PPARγ2 (0.5 μg), (3-galactosidase (0.1 μg), FABP4-Luc reporter genes (0.2 μg) and sLZIP (0.1 μg). After the transfection, the cells were stimulated with or without 10 nM of RZD and 10 nM of TSA (FIG. 4A). A promoter activity was measured according to luciferase analysis. In the 293T cells, FABP4-Luc reporter genes, sLZIP, PPAR, β-galactosidase, and 100 nM of si-RNAs and HDAC1, 2, 3 and 8 for a control group were expressed. After the transfection, the cells were stimulated with or without 10 nM of RZD, and a promoter activity was measured (FIG. 4B). […] A protein complex was analyzed in SDS-PAGE, and anti-GST and anti-Flag antibodies were used for immunoblotting (FIG. 4E). *, P<0.05; **, P<0.01

B1: sLZIP: human small leucine-zipper protein, isoform of LZIP, 354 amino acids, no transmembrane domain; GenBank FJ263669, SEQ ID NO: 1 (protein, listed as Homo sapiens)
chain: MELELDAGDQDLLAFLLEESGDLGTAPDEAVRAPLDWALPLSEVPSDWEVDDLLCSLLSPPASLNILSSSNPCLVHHDHTYSLPRETVSMDLESESCRKEGTQMTPQHMEELAEQEIARLVLTDEEKSLLEKEGLILPETLPLTKTEEQILKRVRRKIRNKRSAQESRRKKKVYVGGLESRVLKYTAQNMELQNKVQLLEEQNLSLLDQLRKLQAMVIEISNKTSSSSMYSSDTRGSLPAEHGVLSRQLRALPSEDPYQLELPALQSEVPKDSTHQWLDGSDCVLQAPGNTSCLLHYMPQAPSAEPPLEWPFPDLFSEPLCRGPILPLQANLTRKGGWLPTGSPSVILQDRYSG
For the molecule B1, the “subcellular localization of sLZIP and HDAC3” value is given as “localized in the nucleus together with HDAC3”.
